Experimental data as given in article PMC2764441.
Several values for one entry are separate records, joined by “and”; a condition that tells them apart may be missing. Equal values may be shown once. Values belong to the binder of their own block, whether it stands above or below them.

Tests used:
[1] = biological target: T1, NF-κB p65 (recombinant p65) (not stated (human or murine protein purified)), Q04207; experiment: cross-linking; conditions: remark: other sources report otherwise
T1 chain: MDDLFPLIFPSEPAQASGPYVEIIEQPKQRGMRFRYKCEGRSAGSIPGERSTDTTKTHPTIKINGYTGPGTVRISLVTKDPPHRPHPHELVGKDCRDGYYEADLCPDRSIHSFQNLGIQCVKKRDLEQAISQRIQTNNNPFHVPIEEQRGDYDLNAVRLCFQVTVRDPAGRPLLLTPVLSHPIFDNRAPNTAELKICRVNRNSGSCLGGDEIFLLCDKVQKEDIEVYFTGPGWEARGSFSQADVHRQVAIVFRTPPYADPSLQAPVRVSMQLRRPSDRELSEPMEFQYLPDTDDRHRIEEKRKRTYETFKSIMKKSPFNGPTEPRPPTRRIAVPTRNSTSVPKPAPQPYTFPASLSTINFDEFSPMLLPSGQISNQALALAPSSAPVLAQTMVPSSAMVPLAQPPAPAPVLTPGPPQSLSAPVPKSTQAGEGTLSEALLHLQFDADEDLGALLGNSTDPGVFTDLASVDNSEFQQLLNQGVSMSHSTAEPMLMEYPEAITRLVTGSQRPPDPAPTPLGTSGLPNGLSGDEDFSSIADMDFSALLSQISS

[2] = biological target: NF-kB p65 homodimer, murine (mouse, UniProt Q04207 19-306); experiment: EMSA
[3] = biological target: NF-kB p65 homodimer, human (human, UniProt Q04206 19-306); experiment: EMSA
[4] = biological target: T2, NF-κB p50 (recombinant human p50) (human), P19838; experiment: cross-linking; conditions: remark: other sources report otherwise
T2 chain: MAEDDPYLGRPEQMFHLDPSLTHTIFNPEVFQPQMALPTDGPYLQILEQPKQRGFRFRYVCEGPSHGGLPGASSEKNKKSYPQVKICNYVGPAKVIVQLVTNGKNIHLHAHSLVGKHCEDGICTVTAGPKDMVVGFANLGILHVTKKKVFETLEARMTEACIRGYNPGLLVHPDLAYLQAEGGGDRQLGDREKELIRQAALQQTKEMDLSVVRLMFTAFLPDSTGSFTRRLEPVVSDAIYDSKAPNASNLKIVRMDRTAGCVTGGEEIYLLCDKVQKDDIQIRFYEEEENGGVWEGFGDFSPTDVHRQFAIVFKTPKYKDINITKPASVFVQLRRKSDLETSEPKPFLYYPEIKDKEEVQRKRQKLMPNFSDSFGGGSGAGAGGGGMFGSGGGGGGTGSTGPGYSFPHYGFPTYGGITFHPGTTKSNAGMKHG

NF-kB p65 homodimer, human, sequence (Q04206 19-306): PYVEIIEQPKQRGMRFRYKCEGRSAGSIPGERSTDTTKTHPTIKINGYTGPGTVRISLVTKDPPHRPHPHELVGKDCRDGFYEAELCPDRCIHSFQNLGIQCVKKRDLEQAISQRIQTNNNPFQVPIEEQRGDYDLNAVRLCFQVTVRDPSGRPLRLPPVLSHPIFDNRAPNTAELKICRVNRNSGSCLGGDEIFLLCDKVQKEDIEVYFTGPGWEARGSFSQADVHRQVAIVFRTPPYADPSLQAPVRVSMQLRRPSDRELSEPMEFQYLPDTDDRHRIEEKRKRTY

stoichiometry N [1]: 2
B1: NF-κB p65 (recombinant p65), Q04207 1-549 (natural protein)
chain: T1 chain

B2: R1 anti-p65 RNA aptamer (structured_RNA)
RNA: GAAGCUUACAAGAAGGACAGCACGAAUAAAACCUGCGUAAAUCCGCCCCAUUUGUGUAAGGGUAGUGGGUCGAAUUCCGCUCA
Kd [2]: 38 ± 20 nM
binding result [3]: binds

stoichiometry N [4]: 2 and 4
B3: NF-κB p50 (recombinant human p50), P19838 1-433 (natural protein)
chain: T2 chain
